Experimental data published in patent US20260176621A1, “Metabolically Stabilized Carbohydrate Targeting Ligands For Oligonucleotide Conjugates” (Arrowhead Pharmaceuticals, Inc., priority 2023, published 2026).

Columns and labels:
Assay type in all cases: in vivo, Cynomolgus monkey
[1] = test system: APOC3; test: Serum APOC3 by Roche Cobas assay (Example 5); conditions: for APOC3 (serum): 6.0 mg/kg SQ on Day 1; for inhibition of serum APOC3 relative to Day −6: single 6.0 mg/kg SQ on Day 1
Method: (§1) On Day 1, three (n=3) male Cynomolgus monkey test animals for each test group were dosed with APOC3-PCSK9 RNAi agents formulated in saline (at 6.0 mg/kg), via subcutaneous (SQ) injection with syringe and needle in the mid-scapular region, at […] dose volume.
(§2) Serum blood (approximately 5.0 mL) was collected on Day −6, Day 8, Day 15, Day 22, Day 29, Day 36, Day 43, Day 50, […], prior to liver biopsy sample collections or dose administration (when applicable), and from any animals found in moribund condition or sacrificed at an unscheduled interval. The collection site was the femoral vein, with a saphenous vein as an alternative collection site.
Serum APOC3 was quantified via Roche Cobas® assay for APOC3 in accordance with manufacturer's instructions.

[2] = test system: APOC3; test: Liver APOC3 mRNA expression by qPCR of liver biopsies (Example 5); conditions: for Rel. Exp. APOC3 (liver mRNA, qPCR, normalized to Day −6): 6.0 mg/kg SQ on Day 1; for inhibition of liver APOC3 transcripts: single 6.0 mg/kg SQ on Day 1
Method: as §1
(§3) The liver biopsies and serum collected from the test animals were used for analysis for APOC3 and PCSK9 expression and additional biological parameters. Liver biopsies were collected on Day −6, Day 15, Day 36, Day 50, and Day 64 (post-mortem).
(§4) Liver biopsies were collected as a sedated procedure. Animals were fasted overnight (at least 12 hours but less than 18 hours) prior to each liver biopsy collection. For each animal, collected liver biopsy samples were of approximately 100 mg each (80 to 120 mg).
(§5) The collected liver biopsies were analyzed for APOC3 and PCSK9 expression and additional biological parameters. Liver APOC3 and PCSK9 mRNA expression levels were quantified via qPCR, using cARL1 as endogenous control gene, normalized to Day-6 (pre-dose).

[3] = test system: PCSK9; test: Liver PCSK9 mRNA expression by qPCR of liver biopsies (Example 5); conditions: for Rel. Exp. PCSK9 (liver mRNA, qPCR, normalized to Day −6): 6.0 mg/kg SQ on Day 1
Method: as §1, §3, §4, §5

[4] = test system: PCSK9; test: Serum PCSK9 by ELISA (Example 5); conditions: for Rel. Exp. PCSK9 (serum, ELISA, normalized to pre-dose): 6.0 mg/kg SQ on Day 1; for inhibition of serum PCSK9: single 6.0 mg/kg SQ on Day 1
Method: as §1, §2
Serum PCSK9 was quantified via ELISA (R&D Systems, Cat. #DPC900) in accordance with manufacturer's instructions. The relative PCSK9 levels were normalized to pre-dose Day −6.

B1: AC005898: APOC3-PCSK9 dimer RNAi agent conjugate with (NAG52)s ligand, SEQ ID NO 17-19 (nucleic acid)
chain 1: ACAAAAGCAAAACAGGUCC
chain 2: UCACUGAGAAUACUGUCCC
chain 3: GGACCUGUUUUGCUUUUGUGGGACAGUAUUCUCAGUNA
modifications: (NAG52)s ligand conjugate; modified_base 1 OTHER; 5'-cyclopropyl phosphonate-2'-O-methyladenosine; modified_base 1^2 OTHER; phosphorothioate linkage; modified_base 2 OTHER; 2'-fluorocytidine; modified_base 2^3 OTHER; modified_base 3 OTHER; 2'-O-methyladenosine; modified_base 3^4 OTHER; modified_base 4 OTHER; 2'-fluoroadenosine; modified_base 5 OTHER; 5'-cyclopropyl phosphonate-2'-O-methyluridine; phosphor
- APOC3 (serum) ([1]; Day 1): 6.10 mg/dL
- APOC3 (serum) ([1]; Day 8): 4.61 mg/dL
- APOC3 (serum) ([1]; Day 15): 3.59 mg/dL
- inhibition of serum APOC3 relative to Day −6 ([1]; Day 22 (nadir)): approximately 40%
- APOC3 (serum) ([1]; Day 22): 3.50 mg/dL
- APOC3 (serum) ([1]; Day 29): 4.16 mg/dL
- APOC3 (serum) ([1]; Day 36): 3.59 mg/dL
- APOC3 (serum) ([1]; Day 43): 4.07 mg/dL
- APOC3 (serum) ([1]; Day 50): 3.96 mg/dL
- APOC3 (serum) ([1]; Day 57): 4.94 mg/dL
- APOC3 (serum) ([1]; Day 64): 4.47 mg/dL
- inhibition of serum APOC3 relative to Day −6 ([1]; Day 64): approximately 23%
- APOC3 (serum) ([1]; Day −6 (pre-dose baseline)): 5.84 mg/dL
- Rel. Exp. APOC3 (liver mRNA, qPCR, normalized to Day −6) ([2]; Day 15): 0.545
- Rel. Exp. APOC3 (liver mRNA, qPCR, normalized to Day −6) ([2]; Day 36): 0.929
- Rel. Exp. APOC3 (liver mRNA, qPCR, normalized to Day −6) ([2]; Day 50): 0.491
- Rel. Exp. APOC3 (liver mRNA, qPCR, normalized to Day −6) ([2]; Day 64): 0.535
- Rel. Exp. APOC3 (liver mRNA, qPCR, normalized to Day −6) ([2]; Day −6 (pre-dose baseline)): 1.000
- Rel. Exp. PCSK9 (liver mRNA, qPCR, normalized to Day −6) ([3]; Day 15): 0.614
- Rel. Exp. PCSK9 (liver mRNA, qPCR, normalized to Day −6) ([3]; Day 36): 0.520
- Rel. Exp. PCSK9 (liver mRNA, qPCR, normalized to Day −6) ([3]; Day 50): 0.528
- Rel. Exp. PCSK9 (liver mRNA, qPCR, normalized to Day −6) ([3]; Day 64): 0.457
- Rel. Exp. PCSK9 (liver mRNA, qPCR, normalized to Day −6) ([3]; Day −6 (pre-dose baseline)): 1.000
- Rel. Exp. PCSK9 (serum, ELISA, normalized to pre-dose) ([4]; Day 1): 1.004
- Rel. Exp. PCSK9 (serum, ELISA, normalized to pre-dose) ([4]; Day 8): 0.724
- Rel. Exp. PCSK9 (serum, ELISA, normalized to pre-dose) ([4]; Day 15): 0.561
- Rel. Exp. PCSK9 (serum, ELISA, normalized to pre-dose) ([4]; Day 22): 0.560
- Rel. Exp. PCSK9 (serum, ELISA, normalized to pre-dose) ([4]; Day 29): 0.617
- Rel. Exp. PCSK9 (serum, ELISA, normalized to pre-dose) ([4]; Day 36): 0.426
- Rel. Exp. PCSK9 (serum, ELISA, normalized to pre-dose) ([4]; Day 43): 0.790
- Rel. Exp. PCSK9 (serum, ELISA, normalized to pre-dose) ([4]; Day 50): 0.728
- Rel. Exp. PCSK9 (serum, ELISA, normalized to pre-dose) ([4]; Day 57): 0.762
- Rel. Exp. PCSK9 (serum, ELISA, normalized to pre-dose) ([4]; Day 64): 0.928
- Rel. Exp. PCSK9 (serum, ELISA, normalized to pre-dose) ([4]; Day −6 (pre-dose)): 1.140

B2: AC003791: APOC3-PCSK9 dimer RNAi agent conjugate with (NAG52)s ligand, SEQ ID NO 14-16 (nucleic acid)
chain 1: AAGUUACAAAAGCAAAACG
chain 2: UCACUGAGAAUACUGUCCC
chain 3: CGUUUUGCUUUUGUAACUUGGGACAGUAUUCUCAGUNA
modifications: (NAG52)s ligand conjugate; modified_base 1 OTHER; 5'-cyclopropyl phosphonate-2'-O-methyladenosine; modified_base 1^2 OTHER; phosphorothioate linkage; modified_base 2 OTHER; 2'-fluoroadenosine; modified_base 2^3 OTHER; modified_base 3 gm; modified_base 4 um; modified_base 5 um; modified_base 6 OTHER; 2'-O-methyladenosine; modified_base 7 cm; modified_base 8 OTHER; modified_base; 5'-cyclopropyl phosphonate-2'-O-methyluridine; 2'-fluorocytidine; phosphor
- APOC3 (serum) ([1]; Day 1): 6.48 mg/dL
- APOC3 (serum) ([1]; Day 8): 4.57 mg/dL
- APOC3 (serum) ([1]; Day 15): 4.03 mg/dL
- APOC3 (serum) ([1]; Day 22): 2.92 mg/dL
- APOC3 (serum) ([1]; Day 29): 3.69 mg/dL
- inhibition of serum APOC3 relative to Day −6 ([1]; Day 36 (nadir)): approximately 51%
- APOC3 (serum) ([1]; Day 36): 2.96 mg/dL
- APOC3 (serum) ([1]; Day 43): 3.18 mg/dL
- APOC3 (serum) ([1]; Day 50): 3.32 mg/dL
- APOC3 (serum) ([1]; Day 57): 4.56 mg/dL
- APOC3 (serum) ([1]; Day 64): 4.65 mg/dL
- inhibition of serum APOC3 relative to Day −6 ([1]; Day 64): approximately 24%
- APOC3 (serum) ([1]; Day −6 (pre-dose baseline)): 6.15 mg/dL
- Rel. Exp. APOC3 (liver mRNA, qPCR, normalized to Day −6) ([2]; Day 15): 0.408
- Rel. Exp. APOC3 (liver mRNA, qPCR, normalized to Day −6) ([2]; Day 36): 0.611
- Rel. Exp. APOC3 (liver mRNA, qPCR, normalized to Day −6) ([2]; Day 50): 0.336
- inhibition of liver APOC3 transcripts ([2]; Day 50): approximately 66%
- Rel. Exp. APOC3 (liver mRNA, qPCR, normalized to Day −6) ([2]; Day 64): 0.500
- inhibition of liver APOC3 transcripts ([2]; Day 64): approximately 50%
- Rel. Exp. APOC3 (liver mRNA, qPCR, normalized to Day −6) ([2]; Day −6 (pre-dose baseline)): 1.000
- Rel. Exp. PCSK9 (liver mRNA, qPCR, normalized to Day −6) ([3]; Day 15): 0.692
- Rel. Exp. PCSK9 (liver mRNA, qPCR, normalized to Day −6) ([3]; Day 36): 0.908
- Rel. Exp. PCSK9 (liver mRNA, qPCR, normalized to Day −6) ([3]; Day 50): 1.271
- Rel. Exp. PCSK9 (liver mRNA, qPCR, normalized to Day −6) ([3]; Day 64): 0.351
- inhibition of liver PCSK9 transcripts ([3]; Day 64, single 6.0 mg/kg SQ on Day 1): approximately 64%
- Rel. Exp. PCSK9 (liver mRNA, qPCR, normalized to Day −6) ([3]; Day −6 (pre-dose baseline)): 1.000
- Rel. Exp. PCSK9 (serum, ELISA, normalized to pre-dose) ([4]; Day 1): 1.161
- Rel. Exp. PCSK9 (serum, ELISA, normalized to pre-dose) ([4]; Day 8): 0.682
- Rel. Exp. PCSK9 (serum, ELISA, normalized to pre-dose) ([4]; Day 15): 0.415
- Rel. Exp. PCSK9 (serum, ELISA, normalized to pre-dose) ([4]; Day 22): 0.339
- Rel. Exp. PCSK9 (serum, ELISA, normalized to pre-dose) ([4]; Day 29): 0.353
- inhibition of serum PCSK9 ([4]; Day 36 (nadir)): approximately 67%
- Rel. Exp. PCSK9 (serum, ELISA, normalized to pre-dose) ([4]; Day 36): 0.323
- Rel. Exp. PCSK9 (serum, ELISA, normalized to pre-dose) ([4]; Day 43): 0.375
- Rel. Exp. PCSK9 (serum, ELISA, normalized to pre-dose) ([4]; Day 50): 0.759
- Rel. Exp. PCSK9 (serum, ELISA, normalized to pre-dose) ([4]; Day 57): 0.431
- Rel. Exp. PCSK9 (serum, ELISA, normalized to pre-dose) ([4]; Day 64): 0.538
- inhibition of serum PCSK9 ([4]; Day 64): approximately 46%
- Rel. Exp. PCSK9 (serum, ELISA, normalized to pre-dose) ([4]; Day −6 (pre-dose)): 0.925
